Assay results published in article PMC8101287.

Molecular target: human LAG‐3 on JRT LAG‐3^+ C8 cells (human) (UniProt P18627)
Assay: flow cytometry on cells

human LAG‐3 on JRT LAG‐3^+ C8 cells (human), sequence (P18627 23-525): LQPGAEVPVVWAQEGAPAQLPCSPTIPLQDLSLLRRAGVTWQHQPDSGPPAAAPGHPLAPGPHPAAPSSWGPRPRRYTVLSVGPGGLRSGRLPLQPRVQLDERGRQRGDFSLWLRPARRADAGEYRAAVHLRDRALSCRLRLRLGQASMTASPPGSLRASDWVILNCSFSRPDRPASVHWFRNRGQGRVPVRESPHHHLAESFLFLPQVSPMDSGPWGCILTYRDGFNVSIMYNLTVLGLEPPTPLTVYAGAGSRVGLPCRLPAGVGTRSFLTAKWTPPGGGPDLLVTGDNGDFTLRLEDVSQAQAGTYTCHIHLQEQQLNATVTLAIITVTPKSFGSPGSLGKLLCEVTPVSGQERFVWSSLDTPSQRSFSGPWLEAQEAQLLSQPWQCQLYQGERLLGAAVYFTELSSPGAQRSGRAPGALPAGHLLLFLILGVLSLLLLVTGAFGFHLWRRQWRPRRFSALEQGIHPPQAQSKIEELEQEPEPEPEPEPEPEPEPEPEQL

Q: For “PE labeled pHLA‐DR1 dextramers loaded with HA_(306‐318) peptide (peptide-MHC)”, which percent of cells with detectable multimer staining is on record?
A: 19%
